Changes are numbered by the printed parent chain.

To fix the notation:
B1: BH2-B11 全抗体 (full antibody, human IgG1/kappa) (antibody, V domains shown)
VH: EVQLVESGGGLVQPGGSLRLSCAASGLTWSDSYKHWVRQAPGKGLEWVHWNSTYGGSTYYADSVKGRFTISADTSKNTAYLQMNSLRAEDTAVYYCARRHFASTWDYWGQGTLVTVSS
VL: DIQMTQSPSSLSASVGDRVTITCRASQNIHNSLAWYQQKPGKAPKLLIYGASSLESGVPSRFSGSGSGTDFTLTISSLQPEDFATYYCQQERRVPWTFGQGTKVEIKR
notes: Full antibody expressed in HEK293E from vector pTSE
B2: AC9-E3 全抗体 (full antibody, human IgG1/kappa) (antibody, V domains shown)
VH: B1 VH with L27C, Y33W, K34D, H49D, W50Y, N51E, F101W, A102N, S103A, W105F
VL: B1 VL with N28S, S32Y, G50S, S53N, E55P, E91G, R92L, R93H, V94T, W96P
notes: as for B1
B3: AH10-E3 全抗体 (full antibody, human IgG1/kappa) (antibody, V domains shown)
VH: EVQLVESGGGLVQPGGSLRLSCAASGWTLSDSLQHWVRQAPGKGLEWVGFQSAYGGSTYYADSVKGRFTISADTSKNTAYLQMNSLRAEDTAVYYCARRHYYTAWDYWGQGTLVTVSS
VL: B1 VL with N28S, S32Y, G50S, S53N, E55P, E91G, R92L, R93H, V94T, W96P
notes: as for B1
B4: BH2-E3 全抗体 (full antibody, human IgG1/kappa) (antibody, V domains shown)
VH: B1 VH
VL: B1 VL with N28S, S32Y, G50S, S53N, E55P, E91G, R92L, R93H, V94T, W96P
notes: as for B1
B5: AH10-B11 全抗体 (full antibody, human IgG1/kappa) (antibody, V domains shown)
VH: B3 VH
VL: B1 VL
notes: Full antibody expressed in HEK293E from vector pTSE; also called AH10-811
B6: AC9-B11 全抗体 (full antibody, human IgG1/kappa) (antibody, V domains shown)
VH: B1 VH with L27C, Y33W, K34D, H49D, W50Y, N51E, F101W, A102N, S103A, W105F
VL: B1 VL
notes: as for B1

T1 sequence (Q9NZQ7 19-238 limits assumed): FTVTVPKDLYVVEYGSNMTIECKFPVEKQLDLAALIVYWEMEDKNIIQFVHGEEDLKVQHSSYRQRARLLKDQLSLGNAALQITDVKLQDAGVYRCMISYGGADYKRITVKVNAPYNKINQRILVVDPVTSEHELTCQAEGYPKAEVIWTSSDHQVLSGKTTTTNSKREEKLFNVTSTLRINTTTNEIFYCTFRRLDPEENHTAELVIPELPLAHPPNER
T2 sequence (Q9NZQ7 19-238 limits assumed): as above

One experiment addresses T1, PD-L1 (UniProt Q9NZQ7 19-238, limits assumed). The experiment can be described thus: cell-based or functional assay.
Take B1: the “EC50(ng/ml), 混合淋巴细胞反应(MLR), CD4+ T细胞增殖 (cck8)” value (shortened to “EC50(ng/ml), 混合淋巴细胞反应(MLR)”) is 6.73 ng/mL.

In the case of B2, the “EC50(ng/ml), 混合淋巴细胞反应(MLR)” value stood at 11.9 ng/mL.

In the case of B3, the “EC50(ng/ml), 混合淋巴细胞反应(MLR)” value was found to be 11.4 ng/mL.

Regarding B4, the “EC50(ng/ml), 混合淋巴细胞反应(MLR)” value worked out at 7.71 ng/mL.

Turning to B5, the “EC50(ng/ml), 混合淋巴细胞反应(MLR)” value was 9.88 ng/mL.

Take B6: the “EC50(ng/ml), 混合淋巴细胞反应(MLR)” value amounted to 7.58 ng/mL.

The target of another experiment is T1, PD-L1. The experiment can be described thus: ELISA, PD-L1 coated 100 ng/well, full antibody titrated from 1 ug/ml, Anti-Human Fc-HRP.
In the case of B1, the midpoint of the response, the EC50, lay at 0.535 ng/mL.

B2 had a 50% effective concentration (EC50) of 2.17 ng/mL.

In the case of B3, it took 1.91 ng/mL to reach a half-maximal effect (EC50).

In the case of B4, the half-maximal effective concentration (EC50) amounted to 1.23 ng/mL.

On to B5, for which the response was half-maximal at 1.43 ng/mL (EC50). The EC50 values of the last two molecules are within 1.5-fold of each other.

For the molecule B6, a half-maximal effect (EC50) was put at 0.574 ng/mL.

A further experiment concerns the target T2, PD-L1-Fc (UniProt Q9NZQ7 19-238, limits assumed).
T2 construct: not shown: Fc part
As to the kind of experiment: competition ELISA, PD-L1-Fc coated 200 ng/well, competitor PD-1-His 5 ug/ml, anti-His-HRP.
B1 returned an IC50 of 61.2 ng/mL.

On to B2, for which the IC50 came out at 138 ng/mL.

As to B3, the half-inhibitory concentration (IC50) came to 136 ng/mL.

Turning to B4, the concentration for half-maximal inhibition (IC50) turned out to be 92.7 ng/mL.

Take B5: the half-inhibitory concentration (IC50) came out at 108 ng/mL.

B6 yielded a half-inhibitory concentration (IC50) of 82 ng/mL.

The values above are taken from patent CN110974958A (BEIJING DONGFANG BIOTECH CO LTD, dated 2020).
